Molecular target: T1, DYRK4-His (UniProt Q9NR20 1-520)
T1 construct: also called recombinant DYRK4; pET30a-DYRK4-his; not shown: His, C-terminal, kept
T1 sequence (looked up): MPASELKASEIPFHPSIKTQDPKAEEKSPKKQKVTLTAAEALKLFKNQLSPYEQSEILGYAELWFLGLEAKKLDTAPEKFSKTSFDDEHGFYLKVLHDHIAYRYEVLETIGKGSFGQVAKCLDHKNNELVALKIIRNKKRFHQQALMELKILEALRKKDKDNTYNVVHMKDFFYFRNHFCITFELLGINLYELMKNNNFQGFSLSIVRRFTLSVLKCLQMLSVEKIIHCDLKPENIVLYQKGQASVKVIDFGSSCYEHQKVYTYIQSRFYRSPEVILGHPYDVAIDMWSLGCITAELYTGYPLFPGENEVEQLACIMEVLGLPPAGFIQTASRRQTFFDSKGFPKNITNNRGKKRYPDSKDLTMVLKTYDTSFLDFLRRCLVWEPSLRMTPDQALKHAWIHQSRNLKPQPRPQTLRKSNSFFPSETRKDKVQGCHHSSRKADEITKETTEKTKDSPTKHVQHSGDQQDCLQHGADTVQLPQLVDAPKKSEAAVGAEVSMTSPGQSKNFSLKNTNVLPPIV
Test: pull-down
Conditions: both partners purified

B1: GST-IRF3 (natural protein, UniProt Q14653 1-427, looked up)
chain: MGTPKPRILPWLVSQLDLGQLEGVAWVNKSRTRFRIPWKHGLRQDAQQEDFGIFQAWAEATGAYVPGRDKPDLPTWKRNFRSALNRKEGLRLAEDRSKDPHDPHKIYEFVNSGVGDFSQPDTSPDTNGGGSTSDTQEDILDELLGNMVLAPLPDPGPPSLAVAPEPCPQPLRSPSLDNPTPFPNLGPSENPLKRLLVPGEEWEFEVTAFYRGRQVFQQTISCPEGLRLVGSEVGDRTLPGWPVTLPDPGMSLTDRGVMSYVRHVLSCLGGGLALWRAGQWLWAQRLGHCHTYWAVSEELLPNSGHGPDGEVPKDKEGGVFDLGPFIVDLITFTEGSGRSPRYALWFCVGESWPQDQPWTKRLVMVKVVPTCLRALVEMARVGGASSLENTVDLHISNSHPLSLTSDQYKAYLQDLVEGMDFQGPGES
notes: also called pGEX6P-1-GST-IRF3; not shown: GST, N-terminal, kept
binding result: binds
